The values that follow come from publication PMC10080691, “Enzyme-Responsive Double-Locked Photodynamic Molecular Beacon for Targeted Photodynamic Anticancer Therapy” (Journal of the American Chemical Society, 2023).

In general, IC50 refers to the concentration at which inhibition is half-maximal.

The nature of data set [1]: Singlet oxygen quantum yield in DMF with DPBF as probe. In kind it is physicochemical. The conditions noted are these: irradiation λ > 610 nm, relative to ZnPc (ΦΔ = 0.56 in DMF). The source says: The singlet oxygen generation efficiency of 1 was then studied and compared with that of 8, 14, and ZnPc in all these media using 1,3-diphenylisobenzofuran (DPBF) as the singlet oxygen probe.[67] The absorbance of DPBF’s absorption at 415 nm (in DMF) or 417 nm (in PBS and the buffer) was monitored during light irradiation (λ > 610 nm). Figures S4–S6 show the changes in the absorption spectra of the mixtures in DMF, PBS, and the buffer, respectively, upon irradiation. […] The singlet oxygen quantum yields (ΦΔ) were also determined in DMF. […]
where W and Iabs are the DPBF photobleaching rate and the rate of light absorption, […]
MMP-2 and Cathepsin B-Responsive Spectroscopic Studies
Compound 1 or 14 was dissolved in DMF to form a 1 mM stock solution, which was then diluted to 1 μM with PBS at pH 7.4 or buffer solution (pH 5.0, 25 mM NaOAc, 1 mM EDTA, 500 μM GSH), both in the presence of 0.1% Tween 80 (v/v) . For the MMP-2-responsive studies, the solutions in PBS were treated with MMP-2 (2 μg mL-1). For the cathepsin B-responsive studies, the solutions in buffer solution were treated with cathepsin B (1 unit mL-1). […]
All of the solutions were stirred continuously at 37 °C. The ir electronic absorption and fluorescence spectra were monitored over a period of 25 h. […]

For data set [2], the system named is HeLa cells. Put plainly: Dark and photocytotoxicity (MTT). The class given is cell-based, human. The settings on record: without light irradiation, up to 4 μM, all conditions. On the procedure: (§1) The dark- and photocytotoxicity of 1 was also investigated against all four cell lines under the different conditions as described, using 14 as a negative control. […] Without light irradiation, both 1 and 14 were noncytotoxic up to 4 μM for all conditions. Upon light irradiation (λ > 610 nm, 23 mW cm^–2, 28 J cm^–2), both conjugates however could induce a different extent of cytotoxicity. […] The results could be attributed to the intrinsic difference in the MMP-2 levels in these cells. […] The photocytotoxicity was further reduced under the dual inhibition condition, for which the IC50 values (>4 μM) also could not be determined. […] The overall results generally followed the trend of intracellular ROS generation as reported above. […]
(§2) Approximately 2 × 10^4 cells per well (100 µL) in the corresponding medium were inoculated in 96-well plates and incubated overnight at 37 °C in a humidified 5% CO 2 atmosphere. A stock solution of 1 or 14 (1 mM) was prepared as described above, which was diluted with a serum-free medium to various concentrations. The cells, after being rinsed with PBS twice, were treated with or without SB -3CT (10 μM) and/or CA -074 Me (25 μM) in the medi um (100 μL) for 2 h. The cells were further incuba ted with 100 μL of different concentrations of 1 or 14 for 1 h at 37 °C under 5% CO2. After being rinsed with PBS twice, the cells were incubated in the culture medium (100 μL) for 6 h. The cells were then rinsed with PBS and re -fed with 100 μL of a serum-containing medium before being irradiated (λ > 610 nm, 23 mW cm –2, 28 J cm– 2) at ambient temperature. Cell viability was determined by means of a colorimetric MTT assay.R7 After irradiation, the cells were incubated at 37 °C under 5% CO 2 overnight. After incubation, the medium was removed and the cell s were rinsed with PBS twice. A MTT (S igma) solution in PBS (3 mg mL -1, 50 μL) was added to each well followed by incubation for 4 h under the same environment. DMSO (100 μL) was then added to each well. Solutions in all the wells were mixed until homogenous. The absorbance at 490 nm of each w ell on the plate was […]
(§3) taken by a microplate reader (Tecan Spark 10M) at ambient temperature. The average […]
(§4) of the other wells. The cell viability was then determined by the equation: […]
(§5) where Ai is the absorbance of the ith datum (i = 1, 2, …, n), Acontrol is the average absorbance of the control wells in which the compound was absent, and n (= 4) is the number of data points. […]

In data set [3] the test system is A549 cells. Put plainly: Dark and photocytotoxicity (MTT). In kind it is cell-based, human. The settings on record: without light irradiation, up to 4 μM, all conditions (with or without inhibitors). On the procedure: as §1, §2, §3, §4, §5
Data set [4] relates to HEK-293 cells. Description: Dark and photocytotoxicity (MTT). In kind it is cell-based, human. The settings on record: for dark cytotoxicity: without light irradiation, up to 4 μM, all conditions. As to the method: as §1, §2, §3, §4, §5
The subject of data set [5] is U-87 MG cells. Put plainly: Dark and photocytotoxicity (MTT). The settings on record: without light irradiation, up to 4 μM, all conditions. The class given is cell-based, human. On the procedure: as §1, §2, §3, §4, §5

The structures appear in SMILES notation. Where only a bound is given, the exact number is not on record here.

Take `CCN(CC)c1ccc2nc3ccc(/N=N/c4ccc(N(C)CCCNC(=O)OC[C@@H]5[C@@H]6CCc7nnn(CC(=O)NCCCC[C@@H]8NC(=O)CNC(=O)[C@H](CCCCN)NC(=O)[C@H](CCCNC(=N)N)NC(=O)[C@H](C(C)C)NC(=O)CNC(=O)[C@H](CC(C)C)NC(=O)[C@@H]9CCCN9C(=O)[C@H](CCCCN)NC(=O)[C@@H](N)CSCc9cc(COc%10ccc(C%11=C%12C(C)=C(I)C(/C=C/c%13ccc(OCCOCCOCCOC)cc%13)=[N+]%12[B-](F)(F)n%12c(/C=C/c%13ccc(OCCOCCOCCOC)cc%13)c(I)c(C)c%12%11)cc%10)cc(c9)CSC[C@@H](C(N)=O)NC(=O)[C@H](CCCCN)NC(=O)[C@H](CCCCN)NC(=O)CNC(=O)[C@H](CC(C)C)NC(=O)[C@H](Cc9ccccc9)NC(=O)CNC(=O)[C@H](CCCCN)NC(=O)CNC8=O)c7CC[C@@H]65)cc4)cc3[n+](-c3ccccc3)c2c1` [compound 1]: the “ΦΔ (singlet oxygen quantum yield)” value in data set [1] is on record as 0.02. The dark cytotoxicity result in data set [2], in data set [3], in data set [4] and in data set [5] was “noncytotoxic” in each case. Further, the IC50 in data set [4] (no inhibitor, 1 h + 6 h, light λ > 610 nm, 23 mW cm-2, 28 J cm-2) was over 4 µM.

Regarding `CCN(CC)c1ccc2nc3ccc(/N=N/c4ccc(N(C)CCCNC(=O)OC[C@@H]5[C@@H]6CCc7nnn(CC(=O)NCCCC[C@@H]8NC(=O)CNC(=O)[C@H](CCCCN)NC(=O)CNC(=O)CNC(=O)CNC(=O)CNC(=O)CNC(=O)[C@H](CCCCN)NC(=O)[C@@H](N)CSCc9cc(COc%10ccc(C%11=C%12C(C)=C(I)C(/C=C/c%13ccc(OCCOCCOCCOC)cc%13)=[N+]%12[B-](F)(F)n%12c(/C=C/c%13ccc(OCCOCCOCCOC)cc%13)c(I)c(C)c%12%11)cc%10)cc(c9)CSC[C@@H](C(N)=O)NC(=O)[C@H](CCCCN)NC(=O)[C@H](CCCCN)NC(=O)CNC(=O)CNC(=O)CNC(=O)CNC(=O)[C@H](CCCCN)NC(=O)CNC8=O)c7CC[C@@H]65)cc4)cc3[n+](-c3ccccc3)c2c1` [compound 14], in data set [1], the “ΦΔ (singlet oxygen quantum yield)” value amounted to 0.02. Moreover, the dark cytotoxicity result in data set [2], in data set [3], in data set [4] and in data set [5] was “noncytotoxic” throughout.
